Assay results from a protein production outcome set (Wang et al. 2014).

Assay: label from the status in PepcDB records

Sequence | protein production
MIKLIHNANIVLEDMILENGHLIIEGDTIKKVSNDKIDYAFDFNEIDEIIDAKNLYVIPGIIDIHSDAIEKEIEPRPSTLLPFNMAFYELDKKLPANGITTVYHSISLGDGVGVRSIDNSLKMIKNIDSYKNIDSKSINHKVHLRYEVLYYEGLEKVLELLDENKIDYLSIMDHSPGQGQYTNPTFYKEYATKVWGVTENYVDTWLDDLVNLHDNLDWNKIANIIGIAKTKNINVASHDDDTLEKMDFIKNIGINVSEFPITLEVAKHSKKLGVLTCLGAPNIVRGKSHNNNLKAMDAILEDCCDIVCSDYLPSAMIKSMCIVAERINNLNKAVSLFTSNPAKAVGIYDERGSIKENKKADLVLVDIDSEYPKVVNTIVNGKTVYKREV | failed
HGTGKQTNALADYWTSEFVNSVRQGIPVPNNYTVINCDFDQYMWEEAAAGCLATQLNSFIQAKNIDDLILLTHSNGGNVVRWILSNPTWDSRYPAVINATSKVIALAPSSGGTPLADAVNQGNVFETTLGWLLGYGSNAVKQQQVGWMAHYNNTWLFGTAGRPRLGKPFEVVVGSDVDSAIWDSDSYCAGYQYQVALETTQNWLDSCSDGFLNCSSQKAAGTVWFTDKQKTRGQEPLSHQQSRRACFNLDTL | failed
WQGLSSKGDLPQVEITKAFFAKQADEVTLQQADVVLVLQQEDGWLYGERLRDGETGWFPEDFARFI | not failed
MKRIILLAFLCTTTLVMAQRINHVQEAIANYDYEAALTLIAKEKPTIPLLLQKGKAQRGLGMNTEALSTYQEIIANDTANTRAYIEAAECCRSLAKYQQALKYYEQALDLNPENKYVRIQYIGLLLSLQKFQDALGESSLMTEKDSSAIALHLQAQSFEGMGELLPATGCYYNIQEKYPDDYLAAAKLAALNIAGSYFNEAIEATEKYRQTDTTNIAVNRQNALAYCLNKDYPTAIQRYEYLVSQGDSSFHTCYYLGISYYAEEKYYEAHDFLEAARKHDPENVNLLYYLGRACAKTSWKKLGVEYLEKALDLTIPKDSNMVRLYIGMTDCYKMAQMPKEQIESIRERYRKYDKQNHKLLYDMAFIYFYSLKDKKNTERCLEAFLKTRPKEDKEEEAKLNERGELVLGTKNYYNAAANWLKDIQSKQKIEDFFLGGNVPAQKPE | failed
MSRTIAETPRPAVASMSSGCIPPHHRPDTLKQRWGTPAAVCLLVTCLFAMTLLTTGCKPPRRTPPTLPDRPDMATVEQPVVPPATVDGKDLDAPQTPKERIALALRLLDDGGDGADPTQAVQLIEQDATTGYAPAQDLLARLSLEGYGTAKDPARAFALAIEAARQGLPDAQRLAGTMYTLGLGTARDLEQGMRWLREAADAGDGEAAAMVADYYRQGLGVERNDTEAFLWTHRAAERGVKRAALWLGLHYHYGVGTPADQKQAFALLRPFADEGDAEALTIIALLLHKGEGVAQDRKAALRYFEKGAAAGDPVAQLDLGVLYHQGDGVTRDMDKARGLFRQCAEGGNARCMTLYASMLEEGEGGPSDPAEALAWYMVASMAGDDDATPFLDDLRSRITAEQAAQGKVRATAIIRSLTASPAADEASRQSSGQTAGQASGHASGQTPESTSARTSAPVPSALPREAAGKRPTVLP | failed
MVSSLLMSFAPATVRVYATSTKGGSGGPKEEKNPIDFVLGFMTKQDQFYETNPLLKKVDEKEGTTTGGRGTVRGGKNSAPTPVPKKSEGGFGGLGSLFKK | failed
MGHHHHHHSHMANGTAGTKVALRKTKQAAEKISADKISKEALLECADLLSSALTEPVPNSQLVDTGHQLLDYCSGYVDCIPQTRNKFAFREAVSKLELSLQELQVSSAAAGVPGTNPVLNNLLSCVQEISDVVQR | failed
SETRSPGLNNMKPQSLQLVLEEQVLALQQQMAENQAASWRKLKNSQEAQQRQATLVRKLQAKVLQYRSWCQELEKRLEATGGPIPQRWENVEEPNLDELLVRLEEEQQRCESLAEVNTQLRLHMEKADVVNKALREDVEKLTVDWK | failed
